Reference: US20210145976A1 (ARO BIOTHERAPEUTICS, published 2021)

Assays:
[1] = target: T1, recombinant biotinylated CD71 extracellular domain (Sino Biologics) with an N-terminal 6His tag (human, UniProt P02786 89-760, biotinylated (sites not given)); assay: screening ELISA
T1 construct: extracellular domain; also called hCD71; huCD71

[2] = target: T1, recombinant biotinylated CD71 …; assay: screening ELISA, ratio

T1 sequence (P02786 other isoform, or with tags, fused parts or gaps): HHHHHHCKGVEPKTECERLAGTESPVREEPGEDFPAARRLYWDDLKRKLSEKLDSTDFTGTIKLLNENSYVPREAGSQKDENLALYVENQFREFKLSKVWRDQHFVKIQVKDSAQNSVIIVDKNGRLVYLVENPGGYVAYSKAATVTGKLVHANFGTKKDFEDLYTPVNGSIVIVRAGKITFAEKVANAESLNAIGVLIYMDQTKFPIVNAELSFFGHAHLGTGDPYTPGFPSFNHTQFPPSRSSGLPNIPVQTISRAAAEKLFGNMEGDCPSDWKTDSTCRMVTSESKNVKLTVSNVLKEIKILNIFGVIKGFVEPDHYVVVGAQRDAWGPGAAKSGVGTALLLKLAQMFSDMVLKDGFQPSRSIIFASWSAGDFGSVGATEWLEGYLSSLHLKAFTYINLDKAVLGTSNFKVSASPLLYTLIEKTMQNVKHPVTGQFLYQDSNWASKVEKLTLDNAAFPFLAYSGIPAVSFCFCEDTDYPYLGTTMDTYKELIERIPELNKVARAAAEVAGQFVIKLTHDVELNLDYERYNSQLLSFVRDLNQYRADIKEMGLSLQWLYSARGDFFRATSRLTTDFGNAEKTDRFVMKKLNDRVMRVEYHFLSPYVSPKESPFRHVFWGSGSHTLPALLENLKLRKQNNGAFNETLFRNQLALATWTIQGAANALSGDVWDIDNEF

hCD71 [1] | hCD71:HSA [2] | Binder
2.62e+06 | 748 | SEQ ID NO 150 (designed binder, FN3 domain) MLPAPKNLVVSRVTEDSARLSWTAPDAAFDSFPIAYAEPSPTGEAIVLTVPGSERSYDLTGLKPGTEYSVLIHGVKGGHLSDPLSAIFTT
2.36e+06 | 33 | SEQ ID NO 147 (designed binder, FN3 domain) MLPAPKNLVVSRVTEDSARLSWTAPDAAFDSFFIGYLEPQPPGEAIVLTVPGSERSYDLTGLKPGTEYSVLIHGVKGGRNSDPLSAISTT
4.18e+06 | 1190 | SEQ ID NO 138 (designed binder, FN3 domain) MLPAPKNLVVSRVTEDSARLSWTAPDAAFDSFFIKYIEWWADGEAIVLTVPGSERSYDLTGLKPGTEYLVEIYGVKGGRQSYPLSAIFTT
2.18e+06 | 910 | SEQ ID NO 131 (designed binder, FN3 domain) MLPAPKNLVVSRVTEDSARLSWTAPDAAFDSFSIDYYEGKGYGEAIVLTVPGSERSYDLTGLKPGTEYQVLISGVKGGKYSLPLSAIFTT
2.71e+06 | 986 | SEQ ID NO 144 (designed binder, FN3 domain) MLPAPKNLVVSRVTEDSARLSWTAPDAAFDSFIIPYAEVRPDGEAIVLTVPGSERSYDLTGLKPGTEYSVLIHGVKGGKLSLPLSAIFTT
2.33e+06 | 2220 | SEQ ID NO 125 (designed binder, FN3 domain) MLPAPKNLVVSRVTEDSARLSWTAPDAAFDSFVIEYFEFVGEGEAIVLTVPGSERSYDLTGLKPGTEYDVGIYGVKGGSLSSPLSAIFTT
1.62e+06 | 33 | SEQ ID NO 145 (designed binder, FN3 domain) MLPAPKNLVVSRVTEDSARLSWTAPDAAFDSFFIPYAEPSPTGEAIVLTVPGSERSYDLTGLKPGTEYDVWIEGVKGGTLSWPLSAIFTT
2.04e+06 | 648 | SEQ ID NO 141 (designed binder, FN3 domain) MLPAPKNLVVSRVTEDSARLSWTAPDAAFDSFVIEYFEQFNLGEAIVLTVPGSERSYDLTGLKPGTEYLVGIYGVKGGWLSHPLSAIFTT
4.28e+06 | 855 | SEQ ID NO 133 (designed binder, FN3 domain) MLPAPKNLVVSRVTEDSARLSWTAPDAAFDSFPIVYGEAWVTGEAIVLTVPGSERSYDLTGLKPGTEYDVWIEGVKGGELSWPLSAIFTT
484000 | 236 | SEQ ID NO 137 (designed binder, FN3 domain) MLPAPKNLVVSRVTEDSARLSWTAPDAAFDSFEIEYDEPSVAGEAIVLTVPGSERSYDLTGLKPGTEYRVFIWGVKGGNQSWPLSAIFTT
2.06e+06 | 1520 | SEQ ID NO 158 (designed binder, FN3 domain) MLPAPKNLVVSRVTEDSARLSWTAPDAAFDSFIIDYLELDDYGEAIVLTVPGSERSYDLTGLKPGTEYPVYIYGVKGGLPSTPLSAIFTT
2.42e+06 | 480 | SEQ ID NO 166 (designed binder, FN3 domain) MLPAPKNLVVSRVTEDSARLSWTAPDAAFDSFTILYNEIQNVGEAIVLTVPGSERSYDLTGLKPGTEYDVWIEGVKGGELSWPLSAIFTT
2.64e+06 | 41 | SEQ ID NO 165 (designed binder, FN3 domain) MLPARKNLVVSRVTEDSARLSWTAPDAAFDSFFIPYAEPSPTGEAIVLTVPGSERSYDLTGLKPGTEYSVLIHGVKGGHLSDPLSAISTT
2.76e+06 | 836 | SEQ ID NO 160 (designed binder, FN3 domain) MLPAPKNLVVSRVTEDSARLSWTAPDAAFDSFNIAYGEWRQHGEAIVLTVPGSERSYDLTGLKPGTEYDVFIDGVKGGNLSWPLSAIFTT
2.58e+06 | 1320 | SEQ ID NO 159 (designed binder, FN3 domain) MLPAPKNLVVSRVTEDSARLSWTAPDAAFDSFLIPYAETSPSGEAIVLTVPGSERSYDLTGLKPGTEYSVLIHGVKGGRNSDPLSAIFTT
2.31e+06 | 78 | SEQ ID NO 122 (designed binder, FN3 domain) MLPAPKNLVVSRVTEDSARLSWTAPDAAFDSFQIPYWEQSLGGEAIVLTVPGSERSYDLTGLKPGTEYEVWIEGVKGGDLSFPLSAISTT
2.06e+06 | 1370 | SEQ ID NO 135 (designed binder, FN3 domain) MLPAPKNLVVSRVTEDSARLSWTAPDAAFDSFPISYYEMSGLGEAIVLTVPGSERSYDLTGLKPGTEYMVYIFGVKGGLNSLPLSAIFTT
2.75e+06 | 1170 | SEQ ID NO 132 (designed binder, FN3 domain) MLPAPKNLVVSRVTEDSARLSWTAPDAAFDSFTIVYAEVTYDGEAIVLTVPGSERSYDLTGLKPGTEYDVFIEGVKGGELSWPLSAIFTT
1.77e+06 | 32 | SEQ ID NO 151 (designed binder, FN3 domain) MLPAPKNLVVSRVTEDSARLSWTAPDAAFDSFFIPYAEPSPTGEAIVLTVPGSERSYDLTGLKPGTEYGVVILGVKGGYGSDPLSAIFTT
1.03e+06 | 206 | SEQ ID NO 156 (designed binder, FN3 domain) MLPAPKNLVVSRVTEDSARLSWTAPDAAFDSFAIEYFENLGIGEAIVLTVPGSERSYDLTGLKPGTEYVVNIYGVKGGWLSSPLSAIFTT
707000 | 228 | SEQ ID NO 123 (designed binder, FN3 domain) MLPAPKNLVVSRVTEDSARLSWTAPDAAFDSFVIPYEEYLYTGEAIVLTVPGSERSYDLTGLKPGTEYDVWIEGVKGGLTSWPLSAIFTT

The remaining lines, values behind:

Binder | hCD71 [1] | hCD71:HSA [2]
SEQ ID NO 154 (designed binder, FN3 domain) MLPAPKNLVVSRVTEDSARLSWTAPDAAFDSFFIPYAEPRPDGEAIVLTVPGSERSYDLTGLKPGTEYSVLIHGVKGGLLSSPLSAIFTT | 2.78e+06 | 670
SEQ ID NO 86 (designed binder, FN3 domain) MLPAPKNLVVSRVTEDSARLSWTAPDAAFDSFIIWYAEWVNDGEAIVLTVPGSERSYDLTGLKPGTEYRVEITGVKGGTWSRPLSAIFTT | 3.39e+06 | 1510
SEQ ID NO 114 (designed binder, FN3 domain) MLPAPKNLVVSRVTEDSARLSWTAPDAAFDSFAIEYWEAVGSGEAIVLTVPGSERSYDLTGLKPGTEYHVYIYGVKGGYLSLPLSAIFTT | 3.27e+06 | 780
SEQ ID NO 116 (designed binder, FN3 domain) MLPAPKNLVVSRVTEDSARLSWTAPDAAFDSFSIAYSEVRYDGEAIVLTVPGSERSYDLTGLKPGTEYVVPIGGVKGGGSSSPLSAIFTT | 536000 | 358
SEQ ID NO 118 (designed binder, FN3 domain) MLPAPKNLVVSRVTEDSARLSWTAPDAAFDSFRILYGEVDPWGEAIVLTVPGSERSYDLTGLKPGTEYDVWIEGVKGGKLSWPLSAIFTT | 2.24e+06 | 119
SEQ ID NO 110 (designed binder, FN3 domain) MLPAPKNLVVSRVTEDSARLSWTAPDAAFDSFFIHYHEWWEAGEAIVLTVPGSERSYDLTGLKPGTEYLVDIPGVKGGDLSVPLSAIFTT | 1.68e+06 | 89
SEQ ID NO 90 (designed binder, FN3 domain) MLPAPKNLVVSRVTEDSARLSWTAPDAAFDSFTIHYWEFDPPGEAIVLTVPGSERSYDLTGLKPGTEYTVYIEGVKGGWWSKPLSAIFTT | 1.09e+06 | 429
SEQ ID NO 93 (designed binder, FN3 domain) MLPAPKNLVVSRVTEDSARLSWTAPDAAFDSFYIGYLEPGDNGEAIVLTVPGSERSYDLTGLKPGTEYNVSIGGVKGGLGSYPLSAIFTT | 2.16e+06 | 1310
SEQ ID NO 82 (designed binder, FN3 domain) MLPAPKNLVVSRVTEDSARLSWTAPDAAFDSFAIAYVEWWKLGEAIVLTVPGSERSYDLTGLKPGTEYVVPIPGVKGGGHSSPLSAIFTT | 3.53e+06 | 187
SEQ ID NO 117 (designed binder, FN3 domain) MLPAPKNLVVSRVTEDSARLSWTAPDAAFDSFTIPYGEAFNPGEAIVLTVPGSERSYDLTGLKPGTEYDVFIEGVKGGTLSWPLSAIFTT | 1.5e+06 | 64
SEQ ID NO 108 (designed binder, FN3 domain) MLPAPKNLVVSRVTEDSARLSWTAPDAAFDSFTIIYGEVNPYGEAIVLTVPGSERSYDLTGLKPGTEYDVFIEGVKGGHLSWPLSAIFTT | 3.19e+06 | 2450
SEQ ID NO 88 (designed binder, FN3 domain) MLPAPKNLVVSRVTEDSARLSWTAPDAAFDSFWIEYFEWTVGGEAIVLTVPGSERSYDLTGLKPGTEYYVSIYGVKGGWLSPPLSAIFTT | 708000 | 118
SEQ ID NO 105 (designed binder, FN3 domain) MLPAPKNLVVSRVTEDSARLSWTAPDAAFDSFGIAYYERSGAGEAIVLTVPGSERSYDLTGLKPGTEYMVYINGVKGGFVSSPLSAIFTT | 1.76e+06 | 1260
SEQ ID NO 98 (designed binder, FN3 domain) MLPAPKNLVVSRITEDSARLSWTAPDAAFDSFDIPYGEFDTIGEAIVLTVPGSERSYDLTGLKPGTEYDVYIEGVKGGHLSWPLSAIFTT | 1.16e+06 | 75
SEQ ID NO 101 (designed binder, FN3 domain) MLPAPKNLVVSRVTEDSARLSWTAPDAAFDSFAIDYDEPINSGEAIVLTVPGSERSYDLTGPKPGTEYEVEIYGVKGGYLSRPLSAIFTT | 1.97e+06 | 216
